What was measured:
[1] = tested on: bone marrow-derived mouse monocytes; assay: RANKL and M-CSF-mediated osteoclast differentiation in bone marrow-derived mouse monocytes (TRAP staining); type: cell-based; details: M-CSF 10 ng/ml and RANKL 30 ng/ml (FIGS. 3A, 3B)
Protocol: After 6-7 days, the cells were fixed and stained for TRAP. The numbers of multi-nucleated, TRAP positive osteoclasts were counted.
Mouse-derived monocytes were plated in 48-well plates and costimulated as in FIG. 3A with murine M-CSF (10 ng/ml) and RANKL (30 ng/ml) in the absence (left panel) or presence of the indicated peptides. After 6-7 days, the cells were fixed and stained for TRAP. A representative field from each well was taken at a magnification of 10×.
(§1) Primary bone marrow monocytes (BM) or RAW264.7 cells were cultured in 48-well dishes at a density of 1×10^5 cells/well or 2×10^3 cells/well, and then treated with the indicated factors at the beginning of the culture and during a medium change on day 3. Osteoclast formation was assessed by counting the total number of multi-nucleated (>3 nuclei), TRAP-positive cells present per well between day 7 and 10 (BM) or on day 5 (RAW264.7) (30).
To further support the results obtained from the RAW264.7 cell line, the ability of these peptides to inhibit RANKL-mediated osteoclast differentiation in primary mouse-derived monocytes was tested. Costimulation of bone marrow-derived monocytes with RANKL and M-CSF cause osteoclast differentiation after 7-10 days, as determined by staining multi-nucleated, TRAP positive osteoclasts (30). Similar to the results with RAW264.7 cells, both L-T6DP-1 and L-T6DP-2 inhibited the development of TRAP positive osteoclast in a dose-dependent manner and L-T6DP-1 was much more efficient (FIGS. 3A and 3B).

[2] = biological target: T1, TRAF5 binding to the cytoplasmic domain of RANK (Mus musculus, UniProt P70191); assay: Competitive GST-pull down assay, TRAF5 binding to RANK cytoplasmic domain; details: 100 μM peptide, FLAG-TRAF5 293 cell extract (FIG. 4C)
T1 construct: expressed in transfected cells; host or cells: human 293 cells (TRAF lysate); The GST-RANK fusion was purified as previously described
T1 sequence (P70191 whole entry, the tested form may be a part): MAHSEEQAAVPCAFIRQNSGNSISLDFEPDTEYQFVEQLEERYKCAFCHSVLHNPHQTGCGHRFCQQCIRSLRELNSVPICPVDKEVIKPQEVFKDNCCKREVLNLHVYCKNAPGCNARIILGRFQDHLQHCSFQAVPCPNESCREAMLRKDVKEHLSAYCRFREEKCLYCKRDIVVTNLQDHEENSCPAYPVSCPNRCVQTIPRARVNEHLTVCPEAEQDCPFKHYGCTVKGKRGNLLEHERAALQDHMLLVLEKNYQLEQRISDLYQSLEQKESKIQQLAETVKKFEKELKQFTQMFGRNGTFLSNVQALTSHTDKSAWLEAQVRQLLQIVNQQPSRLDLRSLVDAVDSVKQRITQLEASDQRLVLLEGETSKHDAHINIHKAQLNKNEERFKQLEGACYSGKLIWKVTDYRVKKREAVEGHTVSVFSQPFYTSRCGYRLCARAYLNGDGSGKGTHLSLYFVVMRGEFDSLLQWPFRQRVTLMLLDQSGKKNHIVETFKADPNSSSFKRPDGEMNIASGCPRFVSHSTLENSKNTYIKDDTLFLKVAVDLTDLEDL
Protocol: (§2) Cellular extracts from human 293 cells transfected with either FLAG-TRAF2, -TRAF5, or -TRAF6 were mixed with GST or GST-RANKed in the absence or presence of 100 μM of the indicated peptides. A GST-pull down assay was performed as described below. The bound TRAFs were visualized by immunoblotting with anti-FLAG antibodies.
(§3) Equivalent amounts of GST or GST-RANK cytoplasmic domain (GST-RANKed) fusion protein attached to 20 μl of glutathione agarose beads were mixed with lysates (50 μg) from 293 cells programmed to express the epitope-tagged TRAF protein and the indicated peptides in binding buffer (20 mM TRIS, pH 8, 150 mM NaCl, 1 mM DTT, 2 mM EDTA, and 0.1% NP-40) and allowed to rotate for 1 h at 4° C. The beads were collected by centrifugation, washed three times in binding buffer, and then washed once in low-salt buffer (20 mM TRIS, pH 8, 50 mM NaCl, and 1 mM DTT). Bound proteins were eluted with addition of SDS-sample buffer and boiled. The eluted proteins were subjected to 7.5% SDS-PAGE and western blot analysis was performed with anti-FLAG antibodies.
(§4) The cytoplasmic domain of RANK interacts with many TRAF molecules, including TRAF1, 2, 3, 5, and 6 (7-9, 11, 12). While TRAF1, 2, 3, and 5 interact with the c-terminal tail of receptor activator of NF-κB, TRAF6 interacts with a membrane proximal region of the cytoplasmic domain of the receptor activator of NF-κB. […]

[3] = biological target: T2, TRAF6 binding to the RANK cytoplasmic domain (Mus musculus, UniProt P70196); assay: Competitive GST-pull down assay, TRAF6 binding to RANK cytoplasmic domain; details: 100 μM peptide, FLAG-TRAF6 293 cell extract, GST-RANK cytoplasmic domain (FIG. 4C)
T2 construct: expressed in transfected cells; host or cells: human 293 cells (TRAF lysate); The GST-RANK fusion was purified as previously described
T2 sequence (P70196 1-530): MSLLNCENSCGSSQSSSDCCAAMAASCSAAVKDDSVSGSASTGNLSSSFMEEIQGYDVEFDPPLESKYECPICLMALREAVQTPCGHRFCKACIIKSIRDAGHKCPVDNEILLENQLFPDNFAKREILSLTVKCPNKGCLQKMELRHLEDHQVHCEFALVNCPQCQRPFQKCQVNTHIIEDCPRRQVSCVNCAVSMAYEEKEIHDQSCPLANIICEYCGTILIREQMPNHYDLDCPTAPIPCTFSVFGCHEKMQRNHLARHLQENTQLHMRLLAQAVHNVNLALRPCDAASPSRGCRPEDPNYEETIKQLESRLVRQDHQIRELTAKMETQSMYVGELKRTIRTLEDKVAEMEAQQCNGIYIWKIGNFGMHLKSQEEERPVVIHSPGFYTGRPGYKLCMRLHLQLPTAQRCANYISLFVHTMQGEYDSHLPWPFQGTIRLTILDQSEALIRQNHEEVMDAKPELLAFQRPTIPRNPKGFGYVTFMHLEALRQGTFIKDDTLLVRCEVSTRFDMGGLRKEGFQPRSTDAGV
Protocol: as §2, §3, §4

[4] = biological target: T3, TRAF2 binding to the cytoplasmic domain of RANK (Homo sapiens, UniProt Q12933); assay: Competitive GST-pull down assay, TRAF2 binding to RANK cytoplasmic domain; details: 100 μM peptide, FLAG-TRAF2 293 cell extract (FIG. 4C)
T3 construct: expressed in transfected cells; host or cells: human 293 cells (TRAF lysate); The GST-RANK fusion was purified as previously described
T3 sequence (Q12933 1-501): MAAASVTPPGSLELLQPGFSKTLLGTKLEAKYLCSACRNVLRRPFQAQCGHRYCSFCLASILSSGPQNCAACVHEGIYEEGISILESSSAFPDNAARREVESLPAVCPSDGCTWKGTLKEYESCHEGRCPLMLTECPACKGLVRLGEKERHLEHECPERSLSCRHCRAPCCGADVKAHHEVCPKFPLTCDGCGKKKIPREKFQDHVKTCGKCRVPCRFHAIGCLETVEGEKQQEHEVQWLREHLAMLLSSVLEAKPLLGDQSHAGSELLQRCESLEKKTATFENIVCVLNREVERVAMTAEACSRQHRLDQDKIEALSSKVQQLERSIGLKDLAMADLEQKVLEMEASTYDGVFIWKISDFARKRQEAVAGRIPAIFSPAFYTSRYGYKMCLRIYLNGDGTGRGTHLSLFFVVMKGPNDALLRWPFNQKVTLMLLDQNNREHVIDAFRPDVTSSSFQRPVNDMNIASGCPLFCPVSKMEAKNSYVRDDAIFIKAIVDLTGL
Protocol: as §2, §3, §4

[5] = tested on: RAW264.7 cells; assay: RANKL-mediated osteoclast differentiation in RAW264.7 cells (TRAP staining); type: cell-based, mouse; details: RANKL, increasing amounts of peptide, 4-5 days (FIG. 2C)
Protocol: RAW264.7 cells were plated in 12-well plates and stimulated with RANKL (30 ng/ml) for 4 days. Cells were stained for TRAP essentially as described below. Photographs were taken using a 10× objective lens.
RAW cells were plated as described in FIG. 2A and treated with RANKL in the presence of 1, 30, or 100 μM of peptides as indicated. On day 4 cells were stained and evaluated as in FIG. 2A.
RAW264.7 cells were plated in 48-well plates in triplicate and treated with RANKL in the presence of increasing amounts of the indicated peptides. After 4-5 days, the cells were stained for TRAP and the total numbers of osteoclasts were counted as described below.
as §1
The mouse macrophage cell line RAW264.7 express the receptor activator of NF-κB on their cell surface and when stimulated with the receptor activator of NF-κB ligand differentiate into multi-nucleated, tartrate resistant acid phosphatase (TRAP) positive osteoclasts after 4-5 days (FIG. 2A). To determine whether L-T6DP-1 could inhibit RANKL-mediated osteoclast differentiation, RAW264.7 cells were co-cultured with increasing concentrations of either L-T6DP-1. or T6DP-1 and 30 ng/ml RANKL for 4 days.

TRAF5 binding to the cytoplasmic domain of RANK [2]: neither L-T6DP-1 nor L-T6DP-2 inhibited
TRAF6 interaction with the cytoplasmic domain of RANK [3]: Only L-T6DP-1 inhibited
TRAF2 binding to the cytoplasmic domain of RANK [4]: neither L-T6DP-1 nor L-T6DP-2 inhibited
Substance: L-T6DP-2: Kaposi fibroblast growth factor signal sequence hydrophobic domain attached to murine RANK peptide containing a similar TRAF6-binding motif (AAVALLPAVLLALLAPFQEPLEVGE)
development of TRAP positive osteoclasts [1]: inhibited
number of TRAP positive osteoclasts [5]: dose-dependent decrease

From patent publication US6998383B2, “Inhibitors of receptor activator of NF-κB and uses thereof” (Research Development Corporation, priority 2001, dated 2006)
